Measured values: patent US20160280766A1 (UNIVERSITY OF MARYLAND BALTIMORE, published 2016)

T1: FcγRIIA (human, UniProt P12318 34-217, limits assumed)
T1 construct: also called CD32; not shown: His-tag fused to the C-terminus
T1 sequence (looked up): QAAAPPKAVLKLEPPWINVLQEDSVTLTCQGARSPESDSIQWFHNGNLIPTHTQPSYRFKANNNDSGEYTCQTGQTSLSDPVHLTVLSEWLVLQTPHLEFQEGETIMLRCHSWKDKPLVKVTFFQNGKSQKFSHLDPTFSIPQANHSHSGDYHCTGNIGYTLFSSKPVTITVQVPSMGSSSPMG

T2: FcγRIIB (human, UniProt P31994 43-217, limits assumed)
T2 construct: also called CD32; not shown: His-tag fused to the C-terminus
T2 sequence (looked up): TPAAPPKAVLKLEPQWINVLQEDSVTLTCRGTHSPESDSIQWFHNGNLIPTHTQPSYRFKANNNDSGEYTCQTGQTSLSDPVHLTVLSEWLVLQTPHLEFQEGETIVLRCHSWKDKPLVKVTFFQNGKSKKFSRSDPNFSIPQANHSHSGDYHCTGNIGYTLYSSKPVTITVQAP


Columns and labels:
[1] = molecular target: T3, FcγRIIIA having a Val residue at polymorphic site 158 (human, UniProt P08637 17-208); test: SPR, Fc captured on Protein A, receptor injected; 1:1 Langmuir kinetic fit
T3 construct: also called FcγRIIIA-158V; CD16a; not shown: His-tag fused to the C-terminus
T3 sequence (P08637 17-208 F176V): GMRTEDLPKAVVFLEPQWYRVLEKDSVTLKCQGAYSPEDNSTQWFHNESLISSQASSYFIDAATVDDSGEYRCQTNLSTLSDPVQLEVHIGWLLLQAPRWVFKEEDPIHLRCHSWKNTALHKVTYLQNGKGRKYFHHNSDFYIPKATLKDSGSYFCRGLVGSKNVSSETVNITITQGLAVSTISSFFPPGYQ
Description: All experiments were performed using a Biacore T100 instrument (GE Healthcare). Protein A (Sigma-Aldrich) (0.1 mg/mL, 10 mM sodium acetate, pH 4.5) was immobilized at a density of 1000 response units (RU) in flow cells 1 and 2 of a CM5 sensor chip via standard amine-coupling procedure according to the manufacturer's instructions (GE Healthcare), using HBS-X buffer (10 mM HEPES, 150 mM NaCl, 0.05% Tween 20) as the running buffer and a flow rate of […]. Flow cell 1 was used as negative control, while flow cell 2 was used to capture wild type or hyper-glycosylated Fc variants in PBS at a density of 100-150 RU. […] Between experiments, the sensor chip surface was regenerated by 2 injections of 15 μL each of 20 mM HCl. Experimental data were corrected for instrument and bulk artifacts by referencing to a control sensor chip surface using Biacore T100 evaluation software 2.0.3 (GE Healthcare). Kinetic parameters of binding were determined using the same software and a 1:1 Langmuir binding model for all FcγRIIIA-158V interactions.

FcγRIIA [2] = molecular target: T1, FcγRIIA; test: ratio of SPR KDs, reference Fc-WT
FcγRIIB [3] = molecular target: T2, FcγRIIB; test: ratio of SPR KDs, reference Fc-WT
[4] = molecular target: T3, FcγRIIIA having a Val residue at …; test: ratio of SPR KDs, reference Fc-WT
[5] = molecular target: T4, FcγRIIIA having a Phe residue at polymorphic site 158 (human, UniProt P08637 17-208, limits assumed); test: ratio of SPR KDs, reference Fc-WT
T4 construct: also called FcγRIIIA-158F; CD16a; not shown: His-tag fused to the C-terminus
T4 sequence (P08637 17-208 limits assumed): as the sequence (P08637 17-208 F176V) above, with V160F counted along it

FcγRIIA [6] = molecular target: T1, FcγRIIA; test: SPR, Fc captured on Protein A, receptor injected; steady-state analysis
FcγRIIB [7] = molecular target: T2, FcγRIIB; test: as above
[8] = molecular target: T4, FcγRIIIA having a Phe residue at …; test: as above

Binder | Kd [1] | fold decrease in binding (Fc-variant KD/Fc-WT KD) (FcγRIIA [2]) | fold decrease in binding (Fc-variant KD/Fc-WT KD) (FcγRIIB [3]) | fold decrease in binding (Fc-variant KD/Fc-WT KD) [4] | fold decrease in binding (Fc-variant KD/Fc-WT KD) [5] | Kd (FcγRIIA [6]) | Kd (FcγRIIB [7]) | Kd [8]
Fc-226^hg/290^hg/E333A/K334A (other, N-linked glycans at Asn297 and at engineered Asn226 and Asn290 (IgG1 heavy chain positions)) EPKSCDKTHTNSTCPAPELLGGPSVFLFPPKPKDTLMISRTPEVTCVVVDVSHEDPEVKFNWYVDGVEVHNAKTNSTEEQYNSTYRVVSVLTVLHQDWLNGKEYKCKVSNKALPAPIAATISKAKGQPREPQVYTLPPSREEMTKNQVSLTCLVKGFYPSDIAVEWESNGQPENNYKTTPPVLDSDGSFFLYSKLTVDKSRWQQGNVFSCSVMHEALHNHYTQKSLSLSPGK | 57 nM | 11.2 fold | 12.2 fold | 17.8 fold | 11.8 fold | 13400 nM | 20800 nM | 151 nM
Fc-S298A/E333A/K334A (other, N-linked glycan at Asn297) EPKSCDKTHTCPPCPAPELLGGPSVFLFPPKPKDTLMISRTPEVTCVVVDVSHEDPEVKFNWYVDGVEVHNAKTKPREEQYNATYRVVSVLTVLHQDWLNGKEYKCKVSNKALPAPIAATISKAKGQPREPQVYTLPPSREEMTKNQVSLTCLVKGFYPSDIAVEWESNGQPENNYKTTPPVLDSDGSFFLYSKLTVDKSRWQQGNVFSCSVMHEALHNHYTQKSLSLSPGK | 2.1 nM |  |  |  |  |  | 7100 nM | 
IgG1 Fc variant Fc-226^hg/290^hg (other, N-linked glycans at Asn297 and at engineered Asn226 and Asn290 (IgG1 heavy chain positions), Both CPP (226-228) and KPR (290-292) replaced by NST) EPKSCDKTHTNSTCPAPELLGGPSVFLFPPKPKDTLMISRTPEVTCVVVDVSHEDPEVKFNWYVDGVEVHNAKTNSTEEQYNSTYRVVSVLTVLHQDWLNGKEYKCKVSNKALPAPIEKTISKAKGQPREPQVYTLPPSREEMTKNQVSLTCLVKGFYPSDIAVEWESNGQPENNYKTTPPVLDSDGSFFLYSKLTVDKSRWQQGNVFSCSVMHEALHNHYTQKSLSLSPGK | 27.5 nM | 7.6 fold | 30.1 fold | 8.6 fold | 12.4 fold | 9100 nM | 51200 nM | 160 nM
IgG1 Fc variant Fc-226^hg/290^hg/S298A (other, N-linked glycans at Asn297 and at engineered Asn226 and Asn290 (IgG1 heavy chain positions)) EPKSCDKTHTNSTCPAPELLGGPSVFLFPPKPKDTLMISRTPEVTCVVVDVSHEDPEVKFNWYVDGVEVHNAKTNSTEEQYNATYRVVSVLTVLHQDWLNGKEYKCKVSNKALPAPIEKTISKAKGQPREPQVYTLPPSREEMTKNQVSLTCLVKGFYPSDIAVEWESNGQPENNYKTTPPVLDSDGSFFLYSKLTVDKSRWQQGNVFSCSVMHEALHNHYTQKSLSLSPGK | 20.2 nM | 10.7 fold | 60.9 fold | 6.3 fold | 6.9 fold | 12800 nM | 104000 nM | 87.8 nM

Next, values leading:

Kd [1] | fold decrease in binding (Fc-variant KD/Fc-WT KD) (FcγRIIA [2]) | fold decrease in binding (Fc-variant KD/Fc-WT KD) (FcγRIIB [3]) | fold decrease in binding (Fc-variant KD/Fc-WT KD) [4] | fold decrease in binding (Fc-variant KD/Fc-WT KD) [5] | Kd (FcγRIIA [6]) | Kd (FcγRIIB [7]) | Kd [8] | Binder
20.8 nM |  |  |  |  |  | 18800 nM | 66.1 nM | IgG1 Fc variant Fc-290^hg (other, N-linked glycans at Asn297 and at engineered Asn290 (IgG1 heavy chain positions), KPR at 290-292 replaced by NST) EPKSCDKTHTCPPCPAPELLGGPSVFLFPPKPKDTLMISRTPEVTCVVVDVSHEDPEVKFNWYVDGVEVHNAKTNSTEEQYNSTYRVVSVLTVLHQDWLNGKEYKCKVSNKALPAPIEKTISKAKGQPREPQVYTLPPSREEMTKNQVSLTCLVKGFYPSDIAVEWESNGQPENNYKTTPPVLDSDGSFFLYSKLTVDKSRWQQGNVFSCSVMHEALHNHYTQKSLSLSPGK
15.5 nM | 10.7 fold | 37.8 fold | 4.8 fold | 3.9 fold | 12800 nM | 64200 nM | 50.1 nM | IgG1 Fc variant Fc-226^hg/290^hg/S298A/E333A/K334A (other, N-linked glycans at Asn297 and at engineered Asn226 and Asn290 (IgG1 heavy chain positions)) EPKSCDKTHTNSTCPAPELLGGPSVFLFPPKPKDTLMISRTPEVTCVVVDVSHEDPEVKFNWYVDGVEVHNAKTNSTEEQYNATYRVVSVLTVLHQDWLNGKEYKCKVSNKALPAPIAATISKAKGQPREPQVYTLPPSREEMTKNQVSLTCLVKGFYPSDIAVEWESNGQPENNYKTTPPVLDSDGSFFLYSKLTVDKSRWQQGNVFSCSVMHEALHNHYTQKSLSLSPGK
